Measured values from publication PMC5095173, “Disulfide-activated protein kinase G Iα regulates cardiac diastolic relaxation and fine-tunes the Frank–Starling response” (Nature Communications, 2016).

Experiments:
[1] = tested on: PKGIα (analogue-sensitive C42S/M438G), cGMP-activated; assay: Chemical genetic phosphoproteomic screen, cGMP-activated PKGIα C42S/M438G versus unactivated control; type: biochemical, human PKGIα; substrates in rat heart homogenate; settings: control = PKGIα C42S/M438G
Summary of the method: (§1)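 Substrates in rat left-ventricle homogenate (20 mg ml) are labelled by engineered Met438Gly PKGIα given a bulky N6-alkylated ATPγS analogue, either as disulfide-activated M438G (oxidized, DTT-free) or as cGMP-activated C42S/M438G. Covalent capture and LC–MS/MS identify sites relative to unactivated kinase.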

[2] = tested on: PKGIα (analogue-sensitive M438G), disulfide-activated; assay: Chemical genetic phosphoproteomic screen, disulfide-activated PKGIα M438G versus unactivated control; type: biochemical, human PKGIα; substrates in rat heart homogenate; settings: control = PKGIα C42S/M438G
Summary of the method: as §1

Molecule	log2 fold change cGMP vs Control [1]	log2 fold change Disulfide vs Control [2]
Atp5a1 pS76 (protein, UniProt P15999 44-553, looked up, phosphorylated at S76) ATP synthase F(1) complex …: QKTGTAEMSSILEERILGADTSVDLEETGRVLSIGDGIARVHGLRNVQAEEMVEFSSGLKGMSLNLEPDNVGVVVFGNDKLIKEGDIVKRTGAIVDVPVGDELLGRVVDALGNAIDGKGPVGSKIRRRVGLKAPGIIPRISVREPMQTGIKAVDSLVPIGRGQRELIIGDRQTGKTSIAIDTIINQKRFNDGTDEKKKLYCIYVAIGQKRSTVAQLVKRLTDADAMKYTIVVSATASDAAPLQYLAPYSGCSMGEYFRDNGKHALIIYDDLSKQAVAYRQMSLLLRRPPGREAYPGDVFYLHSRLLERAAKMNDSFGGGSLTALPVIETQAGDVSAYIPTNVISITDGQIFLETELFYKGIRPAINVGLSVSRVGSAAQTRAMKQVAGTMKLELAQYREVAAFAQFGSDLDAATQQLLSRGVRLTELLKQGQYSPMAIEEQVAVIYAGVRGYLDKLEPSKITKFESAFLSHVVSQHQSLLGNIRSDGKISEQSDAKLKEIVTNFLAGFEP	2.023	1.372
Clasp2 pS436 (protein, UniProt Q99JD4 1-1286, looked up, phosphorylated at S436) CLIP-associating protein 2: MRRLICKRICDYKSFDDEESVDGNRPSSAASAFKVPAPKTPGNPVNSARKPGSAGGPKAGGTSKEGGAGAVDEDDFIKAFTDVPSIQIYSSRELEETLNKIREILSDDKHDWDQRANALKKIRSLLVAGAAQYDCFFQHLRLLDGALKLSAKDLRSQVVREACITVAHLSTVLGNKFDHGAEAIVPTLFNLVPNSAKVMATSGCAAIRFIIRHTHVPRLIPLITSNCTSKSVPVRRRSFEFLDLLLQEWQTHSLERHAAVLVETIKKGIHDADAEARVEARKTYMGLRNHFPGEAETLYNSLEPSYQKSLQTYLKSSGSVASLPQSDRSSSSSQESLNRPFSSKWSTANPSAVAGRVSVGGSKASPLPGSLQRSRSDIDVNAAAGAKAHHAAGQAVRSGRLGAGALNPGSYASLEDTSDKMDGTASEDGRVRAKLSTPLVAVGNAKTDSRGRSRTKMVSQSQPGSRSGSPGRVLTTTALSTVSSGAQRILVNSASAQKRSKIPRSQGCSREASPSRLSVARSSRIPRPSVSQGCSREASRESSRDTSPVRSFQPLGPGYGMSQSSRLSSSVSAMRVLNTGSDVEEAVADALLLGDIRTKKKPARRRYESYGMHSDDDANSDASSACSERSYSSRNGSIPTYMRQTEDVAEVLNRCASSNWSERKEGLLGLQNLLKNQRTLSRVELKRLCEIFTRMFADPHGKVFSMFLETLVDFIQVHKDDLQDWLFVLLTQLLKKMGADLLGSVQAKVQKALDVTRESFPNDLQFNILMRFTVDQTQTPSLKVKVAILKYIETLAKQMDPGDFINSSETRLAVSRVITWTTEPKSSDVRKAAQSVLISLFELNTPEFTMLLGALPKTFQDGATKLLHNHLRNTGNGTQSSMGSPLTRPTPRSPANWSSPLTSPTNTSQNTLSPSAFDYDTENMNSEDIYSSLRGVTEAIQNFSFRSQEDMSEPLKRDPKKEDGDTVCSGPGMSDPRAGGDAPDSSQPALDNKASLLHSVPLHSSPRSRDYNPYNYSDSISPFNKSALKEAMFDDDADQFPDDLSLDHSDLVAELLKELSNHNERIEERKIALYELMKLTQEESFSVWDEHFKTILLLLLETLGDKEPTIRALALKVLKEILRHQPARFKNYAELTVMKTLEAHKDPHKEVVRSAEEAASVLATSISPEQCIKVLCPIIQTADYPINLAAIKMQTKVIERVSKETLNLLLPEIMPGLIQGYDNSESSVRKACVFCLVAVHAVIGDELKPHLSQLTGSKMKLLNLYIKRAQTGSAGADPTTDVSGQS	1.792	0.8616
Crip2 pS114 (protein, UniProt P36201 1-208, looked up, phosphorylated at S114) Cysteine-rich protein 2: MASKCPKCDKTVYFAEKVSSLGKDWHKFCLKCERCNKTLTPGGHAEHDGKPFCHKPCYATLFGPKGVNIGGAGSYIYEKPPTEAPQVTGPIEVPVVRTEERKTSGPPKGPSKASSVTTFTGEPNMCPRCNKRVYFAEKVTSLGKDWHRPCLRCERCSKTLTPGGHAEHDGQPYCHKPCYGILFGPKGVNTGAVGSYIYDKDPEGTVQP	3.456	1.062
